Results on 7 molecules are retold here after patent US20230220042A1 (SHANGHAI JIAO TONG UNIVERSITY SCHOOL OF MEDICINE, published 2023).

Changes are numbered by the printed parent chain. Names may count otherwise.

Sequences and labels used below:
T1: FcγRIIB (human, UniProt P31994 43-217, biotin-labeled)
T1 construct: extracellular domain; Bought protein; also called CD32b
T1 sequence (looked up): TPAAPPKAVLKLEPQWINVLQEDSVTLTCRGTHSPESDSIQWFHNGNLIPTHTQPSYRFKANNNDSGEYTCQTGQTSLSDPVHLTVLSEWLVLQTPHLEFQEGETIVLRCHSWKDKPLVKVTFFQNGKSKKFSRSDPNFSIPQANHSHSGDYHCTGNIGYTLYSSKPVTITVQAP

T2: FcγRIIA^131R (human, UniProt P12318 34-217, biotin-labeled)
T2 construct: extracellular domain; Bought protein; also called RIIAR
T2 sequence (looked up): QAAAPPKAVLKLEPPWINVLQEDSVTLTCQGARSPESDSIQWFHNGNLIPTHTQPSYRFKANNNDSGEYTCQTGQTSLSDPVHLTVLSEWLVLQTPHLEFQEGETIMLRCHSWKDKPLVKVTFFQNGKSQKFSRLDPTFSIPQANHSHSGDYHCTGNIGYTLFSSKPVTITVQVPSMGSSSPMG

T3: FcγRIIA^131H (human, UniProt P12318 34-217, biotin-labeled)
T3 construct: extracellular domain; Bought protein; also called RIIAH
T3 sequence (looked up): T2 sequence (looked up) with R134H

B1: anti-human OX40 IgG2 antibody Mut_4 (V234M/S267E/S298L/L328W) (antibody)
heavy: QVQLQESGPGLVKPSGTLSLTCAVSGGSISSSIWWSWVRQPPGKGLEWIGEIHHSGNTNCNPSLKSRVTISIDKSKNQFSLKLTSVTAADTAVYYCARAGTGTTLDYWGQGTLVTVSSASTKGPSVFPLAPCSRSTSESTAALGCLVKDYFPEPVTVSWNSGALTSGVHTFPAVLQSSGLYSLSSVVTVPSSNFGTQTYTCNVDHKPSNTKVDKTVERKCCVECPPCPAPPMAGPSVFLFPPKPKDTLMISRTPEVTCVVVDVEHEDPEVQFNWYVDGVEVHNAKTKPREEQFNLTFRVVSVLTVVHQDWLNGKEYKCKVSNKGWPAPIEKTISKTKGQPREPQVYTLPPSREEMTKNQVSLTCLVKGFYPSDIAVEWESNGQPENNYKTTPPMLDSDGSFFLYSKLTVDKSRWQQGNVFSCSVMHEALHNHYTQKSLSLSPGK
light: EIVLTQSPGTLSLSPGERATLSCRASQSVSGDYLAWYQQKLGQAPRLLIYGASIRATGIPDRFSGSGSGTDFTLTISKLEPEDFAVYYCQQYGSSPLTFGGGTKVEIKRTVAAPSVFIFPPSDEQLKSGTASVVCLLNNFYPREAKVQWKVDNALQSGNSQESVTEQDSKDSTYSLSSTLTLSKADYEKHKVYACEVTHQGLSSPVTKSFNRGEC
notes: Substitutions in Eu numbering; entries include an unstated signal peptide
B2: anti-human OX40 IgG2 antibody Mut_5 (A235W/V266L/S298L/L328W) (antibody)
heavy: B1 heavy with M232V, A233W, V263L, E264S
light: B1 light
notes: as for B1
B3: anti-human OX40 IgG2 antibody Mut_9 (V266L/S267D/H268D/E269D/P271Q) (antibody, name in EU numbering)
heavy: B1 heavy with M232V, V263L, E264D, H265D, E266D, P268Q, L295S, W325L
light: B1 light
notes: as for B1
B4: anti-human OX40 IgG2 antibody Mut_11 (S267E/A330S) (antibody, name in EU numbering)
heavy: B1 heavy with M232V, L295S, W325L, A327S
light: B1 light
notes: as for B1
B5: anti-human OX40 IgG2 antibody Mut_6 (V234Q/A235G/P238L/S239V/H268D/G327A/L328E/A330S/I332T) (antibody)
heavy: QVQLQESGPGLVKPSGTLSLTCAVSGGSISSSIWWSWVRQPPGKGLEWIGEIHHSGNTNCNPSLKSRVTISIDKSKNQFSLKLTSVTAADTAVYYCARAGTGTTLDYWGQGTLVTVSSASTKGPSVFPLAPCSRSTSESTAALGCLVKDYFPEPVTVSWNSGALTSGVHTFPAVLQSSGLYSLSSVVTVPSSNFGTQTYTCNVDHKPSNTKVDKTVERKCCVECPPCPAPPQGGLVVFLFPPKPKDTLMISRTPEVTCVVVDVSDEDPEVQFNWYVDGVEVHNAKTKPREEQFNSTFRVVSVLTVVHQDWLNGKEYKCKVSNKAEPSPTEKTISKTKGQPREPQVYTLPPSREEMTKNQVSLTCLVKGFYPSDIAVEWESNGQPENNYKTTPPMLDSDGSFFLYSKLTVDKSRWQQGNVFSCSVMHEALHNHYTQKSLSLSPGK
light: B1 light
notes: entries include an unstated signal peptide
B6: anti-human OX40 IgG2 antibody Mut_10 (S267E/H268S/E269D) (antibody, name in EU numbering)
heavy: B1 heavy with M232V, H265S, E266D, L295S, W325L
light: B1 light
notes: as for B1
B7: anti-human OX40 IgG2 antibody Mut_7 (S239V/V266L/S298L/L328W) (antibody, name in EU numbering)
heavy: B1 heavy with M232V, S236V, V263L, E264S
light: B1 light
notes: as for B1

T4 sequence (P08637 17-208 F176V): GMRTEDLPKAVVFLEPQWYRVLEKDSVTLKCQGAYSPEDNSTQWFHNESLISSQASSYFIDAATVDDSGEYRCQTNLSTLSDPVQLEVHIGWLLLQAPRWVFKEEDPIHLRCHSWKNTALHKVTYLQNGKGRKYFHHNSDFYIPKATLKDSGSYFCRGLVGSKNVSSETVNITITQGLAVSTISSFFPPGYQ
T5 sequence (P12314 16-292): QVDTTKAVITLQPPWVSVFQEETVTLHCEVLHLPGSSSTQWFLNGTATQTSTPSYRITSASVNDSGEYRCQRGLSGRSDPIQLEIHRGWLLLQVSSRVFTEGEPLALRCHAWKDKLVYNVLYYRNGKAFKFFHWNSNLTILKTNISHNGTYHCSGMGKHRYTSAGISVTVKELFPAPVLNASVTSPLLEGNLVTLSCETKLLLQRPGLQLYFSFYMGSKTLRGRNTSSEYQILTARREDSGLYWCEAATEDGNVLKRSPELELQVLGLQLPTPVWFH

In the first assay the target is T1, FcγRIIB. As to the kind of experiment: ELISA; relative affinity to FcγRIIB over that to FcγRIIA131R. Here is the method:
(§1) One hundred μl (2 μg/mL) of antibody or mutant thereof were added to the enzyme-linked plate to be coated overnight, then the supernatant was discarded. The plate was blocked with PBS containing 1% BSA for 2 hours, and washed with PBST (PBS containing 0.05% Tween 20). Biotin-labeled FcγR extracellular domain protein (Beijing Sino Biological Co., Ltd) of appropriate concentration was added and incubated at room temperature for 1 hour, then the supernatant was discarded and the plate was washed with PBST. The Biotin-labeled protein was detected by incubating with Streptavidin-HRP (BD BioSciences) at room temperature for 1 hour. The supernatant was removed, and the color-developing solution was added for color development for 20-40 minutes to determine the absorbance of 650 nm (A650).
(§2) Anti-human OX40 antibodies containing these new Fc mutation combinations are expressed and the binding property of the mutant antibody to FcγR are analyzed by Enzyme-linked immunosorbent assay (ELISA).
As to B1, the RIIB/RIIAR was 0.46 ratio.
Same read-out and setting: the result for B2 reads 0.88 ratio.
Take B3: the RIIB/RIIAR is 0.56 ratio.
In the case of B4, the RIIB/RIIAR came out at 0.98 ratio.
Still for that read-out and setting: the result for B5 reads 3.52 ratio; that for B6, 0.85 ratio.
Still for that read-out and setting: the result for B7 reads 0.88 ratio.

Another assay addresses T4, FcγRIIIA^158V (human, UniProt P08637 17-208, biotin-labeled).
T4 construct: extracellular domain; Bought protein; also called RIIIAV; CD16a 158V
Kind of assay: ELISA, coated antibody, biotin-FcγR.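 For Absorbance value: antibody coated at 2 µg/mL at 100 µL per well.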 Here is the method: as §1, §2
With B1, the Absorbance value was determined as 0.05 A650 and the “Relative binding affinity RIIIAV/G1” value was determined as 0.06 ratio.
On the same counts, the results for B2 are 0.06 A650 and 0.07 ratio.
B3: the Absorbance value is 0.07 A650 and the “Relative binding affinity RIIIAV/G1” value turned out to be 0.08 ratio.
On the same counts, the results for B4 are 0.08 A650 and 0.08 ratio.
With B5, the Absorbance value was found to be 0.06 A650 and the “Relative binding affinity RIIIAV/G1” value was determined as 0.06 ratio.
On the same counts, the results for B6 are 0.09 A650 and 0.09 ratio.
On the same counts, the results for B7 are 0.06 A650 and 0.07 ratio.

The next assay has as its target T5, FcγRI (human, UniProt P12314 16-292, biotin-labeled).
T5 construct: extracellular domain; Bought protein; also called CD64
As to the kind of experiment: ELISA, coated antibody, biotin-FcγR.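 For Absorbance value: antibody coated at 2 µg/mL at 100 µL per well.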 Here is the method: as §1, §2
(In general: In an ELISA, binding on a coated surface is turned into a signal by an enzyme label.)
With B1, the Absorbance value was 0.25 A650 and the “Relative binding affinity RI/G1” value was 0.1 ratio.
In the case of B2, the Absorbance value was found to be 0.38 A650 and the “Relative binding affinity RI/G1” value was determined as 0.14 ratio.
On the same counts, the results for B3 are 0.12 A650 and 0.05 ratio.
On the same counts, the results for B4 are 0.13 A650 and 0.05 ratio.
In the case of B5, the Absorbance value came out at 0.09 A650 and the “Relative binding affinity RI/G1” value is 0.03 ratio.
On the same counts, the results for B6 are 0.18 A650 and 0.07 ratio.
On the same counts, the results for B7 are 0.13 A650 and 0.05 ratio.

The next assay deals with T6, FcγRIIIA^158F (human, UniProt P08637 17-208, biotin-labeled).
T6 construct: extracellular domain; Bought protein; also called RIIIAF
T6 sequence (P08637 17-208): as the sequence (P08637 17-208 F176V) above, with V160F counted along it
Kind of assay: ELISA, coated antibody, biotin-FcγR.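 For Absorbance value: antibody coated at 2 µg/mL at 100 µL per well.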 Here is the method: as §1, §2
As to B1, the Absorbance value was found to be 0.06 A650 and the “Relative binding affinity RIIIAF/G1” value worked out at 0.32 ratio.
For the molecule B2, the Absorbance value was 0.06 A650 and the “Relative binding affinity RIIIAF/G1” value was found to be 0.31 ratio.
On to B3, for which the Absorbance value turned out to be 0.07 A650 and the “Relative binding affinity RIIIAF/G1” value amounted to 0.38 ratio.
On the same counts, the results for B4 are 0.08 A650 and 0.41 ratio.
Take B5: the Absorbance value is 0.06 A650 and the “Relative binding affinity RIIIAF/G1” value worked out at 0.3 ratio.
On the same counts, the results for B6 are 0.09 A650 and 0.48 ratio.
With B7, the Absorbance value worked out at 0.07 A650 and the “Relative binding affinity RIIIAF/G1” value was found to be 0.38 ratio.

A further assay concerns the target T2, FcγRIIA^131R. Kind of assay: ELISA, coated antibody, biotin-FcγR.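 For Absorbance value: antibody coated at 2 µg/mL at 100 µL per well.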 Here is the method: as §1, §2
For the molecule B1, the Absorbance value amounted to 1.44 A650 and the “Relative binding affinity RIIAR/G1” value stood at 5.51 ratio.
On the same counts, the results for B2 are 0.46 A650 and 1.77 ratio.
On the same counts, the results for B3 are 0.74 A650 and 2.83 ratio.
As for B4, the Absorbance value was determined as 0.36 A650 and the “Relative binding affinity RIIAR/G1” value is 1.36 ratio.
Take B5: the Absorbance value amounted to 0.05 A650 and the “Relative binding affinity RIIAR/G1” value came out at 0.19 ratio.
B6: the Absorbance value came to 0.43 A650 and the “Relative binding affinity RIIAR/G1” value was 1.64 ratio.
B7: the Absorbance value worked out at 0.23 A650 and the “Relative binding affinity RIIAR/G1” value turned out to be 0.87 ratio.

For another assay, the target named is T1, FcγRIIB. As to the kind of experiment: ELISA, coated antibody, biotin-FcγR.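 For Absorbance value: antibody coated at 2 µg/mL at 100 µL per well.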 As to the method:
as §1, §2
Take B1: the Absorbance value turned out to be 1.92 A650, the “Increased factor of RIIB binding compared with wild-type IgG2” value (“Increased factor of RIIB binding” for short) amounted to 25.6 fold and the “Relative binding affinity RIIB/G1” value turned out to be 2.54 ratio.
In the case of B2, the Absorbance value was found to be 1.18 A650, the “Increased factor of RIIB binding” value was determined as 15.7 fold and the “Relative binding affinity RIIB/G1” value was 1.56 ratio.
On to B3, for which the Absorbance value stood at 1.2 A650, the “Increased factor of RIIB binding” value was 16 fold and the “Relative binding affinity RIIB/G1” value was 1.59 ratio.
On the same counts, the results for B4 are 1.01 A650, 13.4 fold and 1.33 ratio.
As for B5, the Absorbance value amounted to 0.5 A650, the “Increased factor of RIIB binding” value was determined as 6.63 fold and the “Relative binding affinity RIIB/G1” value amounted to 0.66 ratio.
Turning to B6, the Absorbance value worked out at 1.05 A650, the “Increased factor of RIIB binding” value turned out to be 14.1 fold and the “Relative binding affinity RIIB/G1” value came to 1.4 ratio.
On the same counts, the results for B7 are 0.58 A650, 7.7 fold and 0.76 ratio.

In another assay the target is T3, FcγRIIA^131H. Kind of assay: ELISA, coated antibody, biotin-FcγR.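 For Absorbance value: antibody coated at 2 µg/mL at 100 µL per well.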 As to the method: as §1, §2
In the case of B1, the Absorbance value was 0.48 A650 and the “Relative binding affinity RIIAH/G1” value was 0.84 ratio.
As to B2, the Absorbance value came out at 0.46 A650 and the “Relative binding affinity RIIAH/G1” value is 0.81 ratio.
As to B3, the Absorbance value came to 0.2 A650 and the “Relative binding affinity RIIAH/G1” value was 0.34 ratio.
In the case of B4, the Absorbance value turned out to be 0.55 A650 and the “Relative binding affinity RIIAH/G1” value stood at 0.96 ratio.
Consider B5, for which the Absorbance value came to 0.05 A650 and the “Relative binding affinity RIIAH/G1” value stood at 0.08 ratio.
For the molecule B6, the Absorbance value came to 0.58 A650 and the “Relative binding affinity RIIAH/G1” value was 1.02 ratio.
On the same counts, the results for B7 are 0.38 A650 and 0.67 ratio.
